Results reported in patent US20220372138A1 (IOMX THERAPEUTICS, published 2022).

T1: murine IGSF11 expressed on cells (mouse, UniProt P0C673 23-428)
T1 construct: MC38-IGSF11, CT26-IGSF11, MC38-wt (naturally expresses murine IGSF11)
T1 sequence: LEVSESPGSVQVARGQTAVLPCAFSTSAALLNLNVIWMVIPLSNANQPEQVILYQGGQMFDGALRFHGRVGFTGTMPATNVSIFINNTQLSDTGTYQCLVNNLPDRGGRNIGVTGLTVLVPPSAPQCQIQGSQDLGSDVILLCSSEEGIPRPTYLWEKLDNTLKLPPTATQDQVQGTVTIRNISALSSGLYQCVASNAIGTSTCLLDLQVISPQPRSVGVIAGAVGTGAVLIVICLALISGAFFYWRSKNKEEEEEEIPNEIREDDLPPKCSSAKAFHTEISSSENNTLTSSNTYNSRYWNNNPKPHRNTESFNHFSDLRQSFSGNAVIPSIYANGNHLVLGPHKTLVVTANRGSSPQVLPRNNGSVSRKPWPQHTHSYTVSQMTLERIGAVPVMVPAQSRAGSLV

T2: human IGSF11 (VSIG3) expressed on cells (human, UniProt Q5DX21 23-431)
T2 sequence: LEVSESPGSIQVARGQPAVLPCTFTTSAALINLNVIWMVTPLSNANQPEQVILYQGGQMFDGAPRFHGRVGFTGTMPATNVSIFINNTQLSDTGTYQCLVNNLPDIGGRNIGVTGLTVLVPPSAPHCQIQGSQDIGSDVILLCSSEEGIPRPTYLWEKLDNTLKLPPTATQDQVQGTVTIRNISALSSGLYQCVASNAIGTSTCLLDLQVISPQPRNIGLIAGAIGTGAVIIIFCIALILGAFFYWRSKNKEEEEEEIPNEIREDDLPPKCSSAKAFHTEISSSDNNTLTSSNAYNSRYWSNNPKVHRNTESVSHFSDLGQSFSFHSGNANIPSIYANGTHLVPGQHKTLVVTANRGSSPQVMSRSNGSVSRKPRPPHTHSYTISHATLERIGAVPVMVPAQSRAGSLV

T3: extracellular domain (ECD) of human IGSF11 (VSIG3), recombinant (human, UniProt Q5DX21 23-241)
T3 construct: biotinylated where captured on streptavidin; tags of the reagent not always stated; also called IGSF11 (ECD domain); ECD-IGSF11
T3 sequence: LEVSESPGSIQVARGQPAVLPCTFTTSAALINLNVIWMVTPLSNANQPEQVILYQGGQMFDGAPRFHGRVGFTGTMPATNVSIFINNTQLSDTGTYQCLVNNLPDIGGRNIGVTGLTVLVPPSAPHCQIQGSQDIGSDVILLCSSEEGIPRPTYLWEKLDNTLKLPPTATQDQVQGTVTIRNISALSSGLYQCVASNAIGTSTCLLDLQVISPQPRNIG

T4: IgV domain of human IGSF11 fused to murine IgG2a Fc (human, UniProt Q5DX21 23-143)
T4 construct: not shown: murine IgG2a Fc-region
T4 sequence: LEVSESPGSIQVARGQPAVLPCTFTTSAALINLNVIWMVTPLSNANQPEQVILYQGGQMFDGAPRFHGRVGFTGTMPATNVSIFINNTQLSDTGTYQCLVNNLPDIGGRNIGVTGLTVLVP

T5: full-length ECD of human IGSF11 fused to murine Fc (human, UniProt Q5DX21 23-241)
T5 construct: also called Fc-fusion IGSF11 ECD; not shown: murine Fc
T5 sequence: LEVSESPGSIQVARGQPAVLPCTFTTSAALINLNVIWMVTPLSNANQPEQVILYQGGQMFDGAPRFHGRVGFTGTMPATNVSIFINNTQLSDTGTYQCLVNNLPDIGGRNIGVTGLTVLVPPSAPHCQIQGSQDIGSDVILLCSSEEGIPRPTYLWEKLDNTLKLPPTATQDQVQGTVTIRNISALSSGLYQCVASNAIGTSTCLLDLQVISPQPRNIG

T6: ECD of cynomolgus monkey IGSF11, recombinant biotinylated (cynomolgus monkey, UniProt Q5DX21 23-241 (human entry))
T6 construct: whole entry named
T6 chain: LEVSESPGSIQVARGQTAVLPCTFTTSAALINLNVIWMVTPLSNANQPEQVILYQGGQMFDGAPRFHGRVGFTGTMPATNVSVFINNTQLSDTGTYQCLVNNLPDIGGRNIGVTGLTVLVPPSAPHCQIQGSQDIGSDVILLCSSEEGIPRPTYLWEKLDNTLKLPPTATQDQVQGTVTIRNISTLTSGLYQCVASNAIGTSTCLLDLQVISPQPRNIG

T7: ECD of murine IGSF11, recombinant biotinylated (mouse, UniProt P0C673 23-240)
T7 construct: whole entry named; also called Mouse IGSF11
T7 sequence: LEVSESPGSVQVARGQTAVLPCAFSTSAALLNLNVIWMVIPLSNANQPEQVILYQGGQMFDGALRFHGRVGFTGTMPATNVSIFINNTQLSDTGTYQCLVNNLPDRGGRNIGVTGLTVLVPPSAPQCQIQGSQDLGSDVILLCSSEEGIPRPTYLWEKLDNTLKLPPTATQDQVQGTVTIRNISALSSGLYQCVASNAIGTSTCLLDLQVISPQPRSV

T8: human IGSF11 (VSIG3) ECD, His-tagged (human, UniProt Q5DX21 23-241)
T8 construct: in part bought (SinoBiological 13094-H08H); also called HIS-IGSF11; IGSF11-HIS; not shown: His tag
T8 sequence: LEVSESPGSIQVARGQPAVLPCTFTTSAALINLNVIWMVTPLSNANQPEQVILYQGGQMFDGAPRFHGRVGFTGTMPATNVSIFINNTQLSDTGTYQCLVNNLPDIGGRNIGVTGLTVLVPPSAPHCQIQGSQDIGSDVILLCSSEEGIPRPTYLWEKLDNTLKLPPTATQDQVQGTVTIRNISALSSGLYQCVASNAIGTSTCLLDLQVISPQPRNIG


Legend:
[1] = biological target: T1, murine IGSF11 expressed on cells; assay: IgG FACS CT26-IGSF11
Excerpt: (§1) Unbound antibodies were removed by washing the cells three time with FACS buffer. Bound antibodies were detected with a mouse anti-human IgG antibody conjugated with AlexaFluor647.

[2] = biological target: T2, human IGSF11 (VSIG3) expressed on cells; assay: IgG FACS MDA-MB-231-IGSF11
Excerpt: as §1

[3] = biological target: T3, extracellular domain (ECD) of human …; assay: BLI apparent affinity, IgG on AHC sensor, IGSF11 ECD 100 nM
Excerpt: Briefly, various APBs were loaded on an optical biosensor via a commercially available Capture System (AHC sensors, ForteBio).

[4] = biological target: T1, murine IGSF11 expressed on cells; assay: IgG FACS MC38-IGSF11
Excerpt: as §1

[5] = biological target: T4, IgV domain of human IGSF11 fused to …; assay: IgG ELISA;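 further: ELISA binding of IgG antibodies to plate-coated IGSF11 Fc-fusion proteins (full-length ECD, IgV or IgC2 domain), detected via HRP-labelled anti-human IgG with TMB development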
Description: (§2) Binding of IgG antibodies to each of the full-length ECD of IGSF11, to the IgV domain of IGSF11 and to the IgC2 domain of IGSF11, was tested in the ELISA assay as follows: briefly, recombinant domains of Fc-fusion IGSF11 proteins were coated at 2 ug/mL on a 384-well Maxisorp plate. The surface was blocked with 2% (w/v) skim milk powder in PBST. […] After removing all unbound antibodies by 3 wash cycles with PBST, bound IgG ABPs were detected with a goat anti-human IgG antibody conjugated with horseradish peroxidase. After three wash cycles with PBST the ELISA was developed with TMB substrate.

[6] = biological target: T5, full-length ECD of human IGSF11 fused …; assay: IgG ELISA;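 further: ELISA binding of IgG antibodies to plate-coated IGSF11 Fc-fusion proteins (full-length ECD, IgV or IgC2 domain), detected via HRP-labelled anti-human IgG with TMB development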
Description: as §2

Streptavidin = Streptavidin (UniProt P22629 37-163, limits assumed); assay: Fab ELISA
Description: (§3) In order to identify IGSF11-specific binding ABPs, monoclonal Fabs expressed from E. coli were generated from the enriched set of anti-IGFS11 antibody-expressing phage. After bacterial lysis, the Fabs were tested for their binding properties and cross-reactivity profile on recombinant ECD-IGSF11 (human, mouse and cynomolgus monkey) by standard ELISA. Briefly, biotinylated recombinant ECD-IGSF11 from human, mouse, or cynomolgus monkey were immobilized at 2 ug/mL on a streptavidin-coated 384-well Maxisorp plate. The surface was blocked with 2% (w/v) skim milk powder in PBST. After three wash cycles with PBST, a bacterial lysate of each of the anti-IGSF11 Fabs in 2% (w/v) skim milk powder was applied to the immobilized IGSF11 and incubated for 1 h. After removing all unbound Fab by 3 wash cycles with PBST, bound Fab antibodies were detected with a goat anti-human Fab antibody conjugated with horseradish peroxidase. After three wash cycles with PBST the ELISA was developed with TMB substrate.

[7] = biological target: T3, extracellular domain (ECD) of human …; assay: Fab ELISA
Description: as §3

[8] = biological target: T6, ECD of cynomolgus monkey IGSF11, …; assay: Fab ELISA
Description: as §3

[9] = biological target: T7, ECD of murine IGSF11, recombinant …; assay: Fab ELISA
Description: as §3

[10] = biological target: T8, human IGSF11 (VSIG3) ECD, His-tagged; assay: ELISA: IGSF11-HIS coated, IgG1 dilution series, anti-human antibody-HRP, TMB
[11] = biological target: T8, human IGSF11 (VSIG3) ECD, His-tagged; assay: blocking ELISA: VSIR-Fc immobilised, IgG dilution series pre-incubated with 200 nM IGSF11 ECD-His, bound IGSF11 detected with anti-His-HRP

Sequence of Streptavidin (P22629 37-163 limits assumed): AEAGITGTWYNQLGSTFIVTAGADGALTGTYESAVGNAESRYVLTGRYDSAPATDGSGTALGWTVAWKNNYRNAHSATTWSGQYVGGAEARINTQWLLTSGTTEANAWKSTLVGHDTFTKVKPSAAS

Row | Binder | A450 (Streptavidin) | A450 [7] | EC50 (read off the curve) [10] [nM] | IC50 (read off the curve) [11] [nM] | other results
1 | C-001 (IgG1 format) (antibody, V domains shown) VH: not shown VL: ASVLTQPPSVSAAPGQKVTISCSGSSSNIGNNYVSWYQQLPGTAPKLLIYDNNKRPSGIPDRFSGSKSGTSATLGITGLQAEDEADYYCGSWLEERSQYVFGGGTKLTVL | – | – | – | – | EC50 [1]: 20 to 50 nM; EC50 [2]: < 10 nM; Kd [3]: < 75 nM; EC50 [4]: 50 to 100 nM; EC50 [5]: < 1 nM; EC50 [6]: < 1 nM
2 | C-013 (Fab format) (Fab, V domains shown, Fab from E. coli lysate) VH: not shown VL: SYELTQPPSVSVSPGQTASITCSGDKLGDKYASWYQQKPGQSPVLVIYQDSKRPSGIPERFSGSNSGNTATLTISGTQAEDEADYYCASYLHTPKQFVFGGGTKLTVL | < 0.1 | < 1 | – | – | –
3 | C-027 (Fab format) (Fab, V domains shown, Fab from E. coli lysate) VH: QVQLVQSGAEVKKPGSSVKVSCKASGGTFSSYAISWVRQAPGQGLEWMGGIIPIFGTANYAQKFQGRVTITADESTSTAYMELSSLRSEDTAVYYCARENIPSYYDSSGRQDAFDIWGQGTMVTVSS VL: SYELTQPPSVSVSPGQTASITCSGDKLGDKYASWYQQKPGQSPVLVIYQDSKRPSGIPERFSGSNSGNTATLTISGTQAEDEADYYCQSYLHKSHGAVFGGGTKLTVL | < 0.1 | < 1 | – | – | A450 [8]: < 1
4 | C-018 (Fab format) (Fab, V domains shown, Fab from E. coli lysate) VH: not shown VL: SYELTQPPSVSVSPGQTASITCSGDKLGDKYASWYQQKPGQSPVLVIYQDSKRPSGIPERFSGSNSGNTATLTISGTQAEDEADYYCQAWSTSTHSWVFGGGTKLTVL | < 0.1 | < 1 | – | – | A450 [8]: < 1; A450 [9]: < 1
5 | B-004 (chain-swapped IgG1) (antibody, V domains shown, human IgG1 format; also called B4) VH: EVQLLESGGGLIQPGGSLRLSCAVSGFTVSSNYMSWVRQAPGKGLEWVSVIYSGGSTYYADSVKGRFTISRDNSKNTLYLQMNSLRAEDTAVYYCARGNPYYYGDLQVNFDYWGQGTLVTVSS VL: QAVVTQEPSLTVSPGGTVTLTCASSTGAVTSGYYPNWFQQKPGQAPRPLIYSTSNKHSWTPARFSGSLLGGKAALTLSGVQPDDEAEYYCLLYYGGDWVFGGGTKLTVL | – | – | ~0.02 | ~5 | –
6 | B-006 (chain-swapped IgG1) (antibody, V domains shown, human IgG1 format; also called B6) VH: EVQLVESGGGLIQPGGSLRLSCAASGFTVSSNYMSWVRQAPGKGLEWVSVIYSGGSTYYADSVKGRFTISRDNSKNTLYLQMNSLRAEDTAVYYCARGNPYYYGDLQVNFDYWGQGTLVTVSS VL: QAVVTQEPSLTVSPGETVTLTCASSTGAVTSGYYPNWFQQRPGQAPRALIYSTSNKDSWTPARFSGSLLGGKAALTLSGVQPEDEAEYYCLLYYGGAWVFGGGTKLTVL | – | – | ~0.02 | ~5 | –
7 | B-007 (chain-swapped IgG1) (antibody, V domains shown, human IgG1 format; also called B7) VH: EVQLVESGGGLIQPGGSLRLSCAASGFTVSSNYMSWVRQAPGKGLEWVSVIYSGGSTYYADSVKGRFTISRDNSKNTLYLQMNSLRAEDTAVYYCARGNPYYYGDLQVNFDYWGQGTLVTVSS VL: QAVVTQEPSLTVSPGGTVTLTCASSTGAVTSAYYPNWFQQKPGQAPRALIYSTSNKHSWTPARFSGSLLGGKAALTLSGVQPEDEADYYCLLYYGGAWVFGGGTKLTVL | – | – | ~0.01 | ~3 | –
